Patent US20110150901A1

Target: complex of FGFR1c and β-Klotho (recombinant proteins) (UniProt P11362)
Assay: AlphaScreen competition
Details: ligand

Sequence of complex of FGFR1c and β-Klotho (recombinant proteins) (P11362 other isoform, or with tags, fused parts or gaps, chain 1 of 2): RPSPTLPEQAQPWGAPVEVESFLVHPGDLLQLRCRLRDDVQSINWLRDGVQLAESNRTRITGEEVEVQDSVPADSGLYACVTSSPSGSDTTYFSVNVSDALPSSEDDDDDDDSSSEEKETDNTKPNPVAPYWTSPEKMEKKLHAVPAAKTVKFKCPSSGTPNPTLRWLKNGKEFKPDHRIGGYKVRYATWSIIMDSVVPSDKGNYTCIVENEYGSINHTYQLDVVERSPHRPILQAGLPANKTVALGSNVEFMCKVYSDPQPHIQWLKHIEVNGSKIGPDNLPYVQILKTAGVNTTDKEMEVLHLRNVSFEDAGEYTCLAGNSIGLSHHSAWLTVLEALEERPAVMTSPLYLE
Sequence of complex of FGFR1c and β-Klotho (recombinant proteins) (Q86Z14 53-996, chain 2 of 2, further chain): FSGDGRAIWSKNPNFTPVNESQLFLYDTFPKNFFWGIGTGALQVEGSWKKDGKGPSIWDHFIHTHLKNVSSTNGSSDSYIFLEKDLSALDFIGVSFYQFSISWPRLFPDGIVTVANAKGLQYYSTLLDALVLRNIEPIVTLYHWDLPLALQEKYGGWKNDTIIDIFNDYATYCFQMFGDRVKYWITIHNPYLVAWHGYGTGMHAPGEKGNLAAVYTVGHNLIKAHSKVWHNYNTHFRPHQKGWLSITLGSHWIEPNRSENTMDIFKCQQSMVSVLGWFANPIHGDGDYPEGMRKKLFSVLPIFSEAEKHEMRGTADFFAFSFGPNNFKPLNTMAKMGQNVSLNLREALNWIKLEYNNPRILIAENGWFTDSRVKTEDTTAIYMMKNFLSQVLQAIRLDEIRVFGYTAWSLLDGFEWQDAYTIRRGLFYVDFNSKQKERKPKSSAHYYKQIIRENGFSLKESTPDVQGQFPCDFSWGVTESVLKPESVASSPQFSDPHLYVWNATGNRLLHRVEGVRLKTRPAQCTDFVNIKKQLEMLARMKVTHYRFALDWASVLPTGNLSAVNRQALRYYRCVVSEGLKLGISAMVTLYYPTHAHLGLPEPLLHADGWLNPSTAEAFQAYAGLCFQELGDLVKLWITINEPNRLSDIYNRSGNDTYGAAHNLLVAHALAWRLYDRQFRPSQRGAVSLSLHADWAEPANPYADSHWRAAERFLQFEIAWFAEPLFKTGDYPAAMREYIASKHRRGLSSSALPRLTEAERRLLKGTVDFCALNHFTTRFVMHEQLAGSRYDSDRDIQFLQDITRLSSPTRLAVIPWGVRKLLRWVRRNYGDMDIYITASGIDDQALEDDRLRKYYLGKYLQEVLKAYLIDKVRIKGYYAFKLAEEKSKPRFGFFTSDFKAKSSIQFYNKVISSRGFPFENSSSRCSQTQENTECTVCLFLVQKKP

IC50: 2.6 nM
Substance: human FGF21 (from UniProt Q9NSA1 29-209)
